# Laboratory results reported in patent US6248520, “Nucleic acid molecules encoding nuclear hormone receptor coactivators and uses thereof” (The Rockefeller University, dated 2001).
# T1: human thyroid hormone receptor α (TRα-1), intact (human, UniProt P10827-2)
# T1 sequence: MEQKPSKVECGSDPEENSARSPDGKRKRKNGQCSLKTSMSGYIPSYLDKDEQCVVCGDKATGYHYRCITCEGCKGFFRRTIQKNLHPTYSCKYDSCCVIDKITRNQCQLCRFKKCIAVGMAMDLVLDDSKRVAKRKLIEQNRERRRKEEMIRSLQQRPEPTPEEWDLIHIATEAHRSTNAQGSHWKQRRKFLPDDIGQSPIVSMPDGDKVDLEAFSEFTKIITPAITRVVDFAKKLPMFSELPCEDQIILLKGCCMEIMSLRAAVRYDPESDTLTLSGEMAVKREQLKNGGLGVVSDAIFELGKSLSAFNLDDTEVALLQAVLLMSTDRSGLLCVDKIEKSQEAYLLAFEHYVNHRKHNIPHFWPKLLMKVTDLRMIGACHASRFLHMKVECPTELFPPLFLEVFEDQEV
# B1: Thyroid Receptor-associated protein (TRAP) 100 (other)
# chain: MKVVNLKQAILQAWKERWSDYQWAINMKKFFPKGATWDILNLADALLEQAMIGPSPNPLILSYLKYAISSQMVSYSSVLTAISKFDDFSRDLCVQALLDIMDMFCDRLSCHGKAEECIGLCRALLSALHWLLRCTAASAERLREGLEAGTPAAGEKQLAMCLQRLEKTLSSTKNRALLHIAKLEEASSWTAIEHSLLKLGEILANLSNPQLRSQAEQCGTLIRSIPTMLSVHAEQMHKTGFPTVHAVILLEGTMNLTGETQSLVEQLTMVKRMQHIPTPLFVLEIWKACFVGLIESPEGTEELKWTAFTFLKIPQVLVKLKKYSHGDKDFTEDVNCAFEFLLKLTPLLDKADQRCNCDCTNFLLQECGKQGLLSEASVNNLMAKRKADREHAPQQKSGENANIQPNIQLILRAEPTVTNILKTMDADHSKSPEGLLGVLGHMLSGKSLDLLLAAAAATGKLKSFARKFINLNEFTTYGSEESTKPASVRALLFDISFLMLCHVAQTYGSEVILSESRTGAEVPFFETWMQTCMPEEGKILNPDHPCFRPDSTKVESLVALLNNSSEMKLVQMKWHEACLSISAAILEILNAWENGVLAFESIQKITDNIKGKVCSLAVCAVAWLVAHVRMLGLDEREKSLQMIRQLAGPLFSENTLQFYNERVVIMNSILERMCADVLQQTATQIKFPSTGVDTMPYWNLLPPKRPIKEVLTDIFAKVLEKGWVDSRSIHIFDTLLHMGGVYWFCNNLIKELLKETRKEHTLRAVELLYSIFCLDMQQVTLVLLGHILPGLLTDSSKWHSLMDPPGTALAKLAVWCALSSYSSHKGQASTRQKKRHREDIEDYISLFPLDDVQPSKLMRLLSSNEDDANILSSPTDRSMSSSLSASQLHTVNMRDPLNRVLANLFLLISSILGSRTAGPHTQFVQWFMEECVDCLEQGGRGSVLQFMPFTTVSELVKVSAMSSPKVVLAITDLSLPLGRQVAAKAIAAL
# Biological target: T1, human thyroid hormone receptor α …
# Assay: Far Western: 35S-labelled TRα on blotted TR-TRAP complex (TRAP100 is one of the other TRAPs)
# Method: For coimmunoprecipitation (7), 2 μl of anti-FLAG M2 affinity gel (Kodak) and 3 μl of ^35S-labeled input proteins were used. For Far Western analyses, 500 ng of purified TR-TRAP complex was resolved by SDS-PAGE and transferred onto a nitrocellulose membrane. The blots were probed with in vitro translated, ^35S-labeled human TRα-1 or TRα-1 C-terminus (residues 122–410) in the presence and absence of 10^-7 M T_3.
# Figure 7A: FIG. 7. Ligand-dependent interaction between TRα and TRAP220. (A) Far Western. 500 ng of purified TR-TRAP complex was separated by SDS-PAGE (8% gel), blotted and probed with ^35S-labeled full length (TR) and C-terminal (TRα-C) hTRα in the presence and absence of 10^-7 M […] (T_3). The arrow head indicates the position of the TRAP220 band. (B) Co-immunoprecipitation of TR-TRAP220 from in vitro translated products. The indicated combinations of ^35S-labeled TRAP220, TRAP100 and FLAG-TRα were incubated in the presence and absence of […] (T_3), and subjected to immunoprecipitation with anti-FLAG antibodies (M2 agarose) that recognizes only FLAG-tagged TRα. Figure 7B: Figure 8A: FIG. 8. Nuclear hormone receptor interactions with […] and TRAP100. (A) Ligand-dependent interactions of GST-TRAP220/1 and 2 with ^35S-labeled TRα. […]
binder,measurement,value
B1,binding result,no binding
